# From the supplement of paper PMC11246515
# ± gives the standard deviation of the averaged measurements.
# Assay: total protein half-life in vivo (active degradation + dilution); higher = more stable protein
# [1] = E. coli NCM3722 delta-clpP delta-lon delta-hslV, growth: N-lim chemostat, doubling time 6 h
# [2] = E. coli NCM3722 delta-clpP, growth: N-lim chemostat, doubling time 6 h
# [3] = E. coli NCM3722 delta-hslV, growth: N-lim chemostat, doubling time 6 h
# [4] = E. coli NCM3722 delta-lon, growth: N-lim chemostat, doubling time 6 h
# [5] = E. coli NCM3722 delta-smpB, growth: N-lim chemostat, doubling time 6 h
# [6] = wild type E. coli NCM3722, growth: C-lim chemostat, doubling time 3 h
# [7] = wild type E. coli NCM3722, growth: C-lim chemostat, doubling time 6 h
# [8] = wild type E. coli NCM3722, growth: C-lim chemostat, doubling time 12 h
# [9] = wild type E. coli NCM3722, growth: N-lim chemostat, doubling time 6 h
# [10] = wild type E. coli NCM3722, growth: N-lim chemostat, doubling time 12 h
# [11] = wild type E. coli NCM3722, growth: P-lim chemostat, doubling time 6 h
# [12] = wild type E. coli NCM3722, growth: P-lim chemostat, doubling time 12 h
Sequence,total protein half-life in vivo [1],total protein half-life in vivo [2],total protein half-life in vivo [3],total protein half-life in vivo [4],total protein half-life in vivo [5],total protein half-life in vivo [6],total protein half-life in vivo [7],total protein half-life in vivo [8],total protein half-life in vivo [9],total protein half-life in vivo [10],total protein half-life in vivo [11],total protein half-life in vivo [12]
MKFVSFNINGLRARPHQLEAIVEKHQPDVIGLQETKVHDDMFPLEEVAKLGYNVFYHGQKGHYGVALLTKETPIAVRRGFPGDDEEAQRRIIMAEIPSLLGNVTVINGYFPQGESRDHPIKFPAKAQFYQNLQNYLETELKRDNPVLIMGDMNISPTDLDIGIGEENRKRWLRTGKCSFLPEEREWMDRLMSWGLVDTFRHANPQTADRFSWFDYRSKGFDDNRGLRIDLLLASQPLAECCVETGIDYEIRSMEKPSDHAPVWATFRR,5.619 ± 0.036 h,5.58 ± 0.29 h,5.75 ± 0.011 h,6.04 ± 1.2 h,5.27 ± 0.3 h,3.14 ± 0.45 h,5.863 ± 0.013 h,10.9 ± 0.79 h,5.46 ± 0.4 h,10.8 ± 0.2 h,5.61 ± 0.2 h,11.9 ± 1.3 h
MKGRWVKYLLMGTVVAMLAACSSKPTDRGQQYKDGKFTQPFSLVNQPDAVGAPINAGDFAEQINHIRNSSPRLYGNQSNVYNAVQEWLRAGGDTRNMRQFGIDAWQMEGADNYGNVQFTGYYTPVIQARHTRQGEFQYPIYRMPPKRGRLPSRAEIYAGALSDKYILAYSNSLMDNFIMDVQGSGYIDFGDGSPLNFFSYAGKNGHAYRSIGKVLIDRGEVKKEDMSMQAIRHWGETHSEAEVRELLEQNPSFVFFKPQSFAPVKGASAVPLVGRASVASDRSIIPPGTTLLAEVPLLDNNGKFNGQYELRLMVALDVGGAIKGQHFDIYQGIGPEAGHRAGWYNHYGRVWVLKTAPGAGNVFSG [P0A935],5.19 ± 1.9 h,4.22 ± 0.17 h,3.87 ± 0.69 h,4.05 ± 0.22 h,3 ± 0.41 h,1.877 ± 0.013 h,2.8 ± 0.13 h,4.23 ± 0.38 h,2.99 ± 0.4 h,3.79 ± 0.35 h,3.7 ± 0.37 h,6.57 ± 0.27 h
MKHDHFVVQSPDKPAQQLLLLFHGVGDNPVAMGEIGNWFAPLFPDALVVSVGGAEPSGNPAGRQWFSVQGITEDNRQARVDAIMPTFIETVRYWQKQSGVGANATALIGFSQGAIMVLESIKAEPGLASRVIAFNGRYASLPETASTATTIHLIHGGEDPVIDLAHAVAAQEALISAGGDVTLDIVEDLGHAIDNRSMQFALDHLRYTIPKHYFDEALSGGKPGDDDVIEMM,4.732 ± 0.016 h,,2.76 ± 0.035 h,3.46 ± 0.23 h,2.67 ± 0.22 h,3.16 ± 0.45 h,6.03 ± 2.2 h,5.97 ± 1.4 h,2.93 ± 0.19 h,3.93 ± 0.66 h,4.46 ± 0.27 h,6.94 ± 0.16 h
MKHGIKALLITLSLACAGMSHSALAAASVAKPTAVETKAEAPAAQSKAAVPAKASDEEGTRVSINNASAEELARAMNGVGLKKAQAIVSYREEYGPFKTVEDLKQVPGMGNSLVERNLAVLTL [P0AAR8],,,,,,,,3.36 h,,,,
MKHTVEVMIPEAEIKARIAELGRQITERYKDSGSDMVLVGLLRGSFMFMADLCREVQVSHEVDFMTASSYGSGMSTTRDVKILKDLDEDIRGKDVLIVEDIIDSGNTLSKVREILSLREPKSLAICTLLDKPSRREVNVPVEFIGFSIPDEFVVGYGIDYAQRYRHLPYIGKVILLDE [P0A9M2],4.48 ± 0.22 h,4.53 ± 0.57 h,4.14 ± 0.16 h,5.16 ± 0.72 h,4.08 ± 0.22 h,2.88 ± 0.16 h,4.78 ± 1.6 h,9.38 ± 0.47 h,4.126 ± 0.012 h,7.29 ± 0.7 h,5.5 ± 0.17 h,12.9 ± 1.8 h
MKIAFIGEAVSGFGGMETVIRDVITTFRQQHIQSEMFFFCRNDKMDKGWLEGIKYSCSFSNIRLGFLRRAKHIHALSKWLQEYQPDIVICIDVISCLFAAKARKKSGIDMPVFSWPHFSLDHKKHAEYITCADYHLAISSGIKQQMINRGVAESTINVIFNPVETKDSVIPAPEEGETATFIYVGRMKFEGQKRVKDLLDGLSQAKGNWKLHVLGDGSDFEKCQAYGRELNIDDRIVWYGWQQYPWELVQQDIEKVSALLLTSSFEGFPMTLLEALSWGIPCISADCVSGPADIIQPDVNGHLYQPGDIAGFVTLLNKYIAGEIHIEHEKIPASIDEFYQSKYYDRLHKVIISAISRRK,5.73 ± 0.45 h,,,6.05 ± 0.67 h,5.9 ± 0.06 h,2.96 ± 0.11 h,,10.9 ± 0.65 h,6.03 ± 1.8 h,12.1 ± 1.4 h,6.21 ± 0.58 h,11.8 ± 0.7 h
